Source: patent US7666644B2, “Glyphosate-N-acetyltransferase (GAT) genes” (Verdia, Inc., priority 2004, dated 2010)
Where a chain is given by its changes, count along the chain named.

Key:
[1] = system: N[C@@H](CC(=O)O)C(=O)O; assay: purified protein, by the assay type; conditions: other: 25 mM Hepes, pH 6.8, 10% ethylene glycol
Procedure: (§1) GAT activity of several GAT polypeptides of the present invention was evaluated with respect to a number of amino acid substrates. The GAT polypeptide, AcCoA and amino substrate were incubated in 25 mM Hepes, pH 6.8, 10% ethylene glycol in the wells of a 96-well polystyrene plate. After 30 minutes, the reactions were stopped by the addition of 30 μl of 10 mM 5,5′-dithiobis-2-nitrobenzoate (DTNB) in 500 mM Tris, pH 7.5. After 2 minutes, absorbance was read at 412 nm in a Spectramax Plus plate reader (Molecular Devices, Sunnyvale, Calif.).

[2] = system: O=C(O)CNCP(=O)(O)O; assay: purified protein, by the assay type; conditions: other: 25 mM Hepes, pH 6.8, 10% ethylene glycol
Procedure: as §1

[3] = system: N[C@@H](CO)C(=O)O; assay: purified protein, by the assay type; conditions: other: 25 mM Hepes, pH 6.8, 10% ethylene glycol
Procedure: as §1

[4] = system: tobacco plants; assay: Herbicide spray tests of GAT expressing tobacco plants; format: in vivo, Nicotiana tabacum
Procedure: Tobacco shoots generated as described in EXAMPLE 9 were excised from the explants and transferred to basal root induction (BRI) medium composed of half-strength Murashige and Skoog (MS) medium, pH 5.7, with 1.5% sucrose, 0.3% Gelrite, 0-200 uM glyphosate and 400 ug/ml Timentin. Rooted plants and axillary shoots were clonally propagated by cutting the stem and transferring it to fresh BRI medium until the desired number of clones was obtained. Rooted plants were carefully removed from the solid medium. Prior to placing the plants into small pots of soil, the roots were washed to remove any remaining Gelrite. A protective plastic cover was kept over the plants for at least one week until the plants were well established.
To determine if GAT expressing tobacco plants could tolerate simulated field rate sprays of glyphosate, clonal lines of several events per GAT variant were tested. A typical test was set up as follows: One clone from each event was sprayed with 1 ml of solution containing the isopropylamine salt of glyphosate (Sigma P5671) and 0.125% Triton X-100, pH 6.8 such that the amount of active ingredient sprayed was equivalent to that present in commercial glyphosate products. For example, to achieve 32 oz/acre (1×) of herbicide containing 40% active ingredient (“ai”), 2.4 ul of 40% ai formulation was diluted into 1 ml water and sprayed on a plant in a 4-inch square pot (16 in^2). A mock application (0×) with surfactant only was also included. In some cases a second spray was applied 1-4 weeks later. Plants were kept in controlled growth rooms at 25° C. and 70% humidity with 16 hr light.
Seed-grown wild type plants were also sprayed. […] All 0× plants were healthy, including the non-GAT control plants. Three weeks later all of the surviving plants were sprayed with an 8× dose.

[5] = Kinetic parameters by continuous spectrophotometric assay in the presence of 20 mM KCl, protein quantified via UV absorbance; format: biochemical; conditions: templates GAT 24-5H5 or GAT 25-8H7
Procedure: The further evolved gat genes were first selected for growth in E. coli in minimal M9 medium as described in Example 8, except that 5 mM rather than 1 mM glyphosate was used in the selection. Proteins were purified as described in Example 6 above.
Protein concentrations were determined by UV absorbance at 205 nm. The extinction coefficient was determined by the method described by Scopes (1994; Protein Purification, Principles and Practice, Springer, NewYork) according to the formula E (mg ml^−1 cm^−1)=27+120(A280/A205)=30.5. Prior to quantitation by UV absorbance the protein solution was buffer-exchanged into 50 mM Na2SO4 using a NAP-5 column (Amersham-Pharmacia Biotech).
Error bars represent the standard deviation of multiple assays, where available.

[6] = format: physicochemical; conditions: buffer, pH 7.2
Procedure: The half lives of several GAT polypeptides were also measured at 37.5° C. according to the following procedure. GAT polypeptides 401 (SEQ ID NO: 6), 17-15H3 (SEQ ID NO: 601), 20-8H12 (SEQ ID NO: 739), 22-13B12 (SEQ ID NO: 781), 22-15B4 (SEQ ID NO: 946) and 22-18C5 (SEQ ID NO: 795) were incubated in a matrix of 25 mM Hepes, pH 7.2, 10 mM KCl and 10% methanol (“HKM”). At various timepoints, aliquots were withdrawn and assayed in triplicate at 22° C. using the continuous spectrophotometric assay described in Example 7 using saturating concentrations of glyphosate (20 mM for 401, 5 mM for the rest) and AcCoA (167 uM). The standard error at each time point averaged about 2.9%. GAT activity was plotted as a function of incubation time and the data was fitted to a curve for exponential decay (y=e^−x), where y is enzyme activity and x is time in hours, from which half life was calculated.

Q: Which Km [1] does the source give for “native GAT polypeptide 401 (glyphosate-N-acetyltransferase), wild type, SEQ ID NO: 6 (Bacillus licheniformis DSM 13 = ATCC 14580)” here?
A: The Km was 6.7 MM.

Q: And the kcat [1]?
A: The kcat was 0.402 s⁻¹.

Q: What about the kcat/Km [1] of the same molecule?
A: Its kcat/Km is 60 M⁻¹ s⁻¹.

Q: And the Km [2]?
A: Its Km is 1.27 ± 0.0144 MM.

Q: And the kcat [2]?
A: Its kcat is 0.08917 ± 0.000717 s⁻¹.

Q: And the kcat/Km [2]?
A: Its kcat/Km is 70.2 M⁻¹ s⁻¹.

Q: And the Km [3]?
A: The Km was 43 MM.

Q: What about the kcat [3] of the same molecule?
A: The kcat was 14.2 s⁻¹.

Q: And the kcat/Km [3]?
A: Its kcat/Km is 330 M⁻¹ s⁻¹.

Q: Which Km [1] does the source give for “non-native GAT polypeptide 17-15H3 (glyphosate-N-acetyltransferase), SEQ ID NO: 601 (Bacillus licheniformis DSM 13 = ATCC 14580; E119K/E65Q/E67Q/E68K/G37R/I132T/I135V/I15L/K101R/K144R/K58Q/L145I/L26I/L97I/R47G/R92K/T33S/T89S/V114A/Y130F/Y31F)” here?
A: Its Km is 2.95 ± 0.162 MM.

Q: What about the kcat [1] of the same molecule?
A: Its kcat is 7.25 ± 0.188 s⁻¹.

Q: What about the kcat/Km [1] of the same molecule?
A: Its kcat/Km is 2470 M⁻¹ s⁻¹.

Q: What about the Km [2] of the same molecule?
A: The Km was 0.251 ± 0.0041 MM.

Q: And the kcat [2]?
A: The kcat was 19.2 ± 0.46 s⁻¹.

Q: What about the kcat/Km [2] of the same molecule?
A: Its kcat/Km is 76200 M⁻¹ s⁻¹.

Q: What about the Km [3] of the same molecule?
A: The Km was 60.1 ± 1.68 MM.

Q: What about the kcat [3] of the same molecule?
A: Its kcat is 4.03 ± 0.263 s⁻¹.

Q: And the kcat/Km [3]?
A: Its kcat/Km is 67.3 M⁻¹ s⁻¹.

Q: Which Km [1] does the source give for “non-native GAT polypeptide 25-8H7 (glyphosate-N-acetyltransferase), SEQ ID NO: 907 (Bacillus licheniformis DSM 13 = ATCC 14580; E119R/E14D/E65Q/E67K/E68K/G37R/G38S/I132T/I135V/I15L/I19V/I53V/I91V/K101R/K144R/K58Q/L105M/L106I/L145I/L26I/L36T/L97I/M75V/R47G/R92K/T33S/T89S/V114A/Y130F/Y31F/Y45F)” here?
A: Its Km is 4.56 ± 0.112 MM.

Q: What about the kcat [1] of the same molecule?
A: The kcat was 11.7 ± 0.207 s⁻¹.

Q: What about the kcat/Km [1] of the same molecule?
A: The kcat/Km was 2570 M⁻¹ s⁻¹.

Q: And the Km [2]?
A: The Km was 0.05 MM.

Q: What about the kcat [2] of the same molecule?
A: Its kcat is 24.7 ± 1.09 s⁻¹.

Q: And the kcat/Km [2]?
A: The kcat/Km was 493000 M⁻¹ s⁻¹.

B1: 0—5B8: evolved GAT gene, SEQ ID NO:190 (nucleic acid)
DNA: ATGATAGAGGTGAAACCGATTAACGCAGAGGATACCTATGAACTAAGGCATAAAATACTCAGACCAAACCAGCCGATAGAAGCGTGTATGTATGAAAGCGATTTACTTCGTGGTGCATTTCACTTAGGCGGCTTTTACAGGGGCAAACTGATTTCCATAGCTTCATTCCACCAGGCCGAGCACTCAGACCTCCAAGGCCAGAAACAGTACCAGCTCCGAGGTATGGCTACCTTGGAAGGTTATCGTGATCAGAAAGCGGGATCGAGTCTAATTAGACACGCTGAACAAATTCTTCGTAAGAGGGGGGCGGACTTGCTTTGGTGCAATGCGCGGACATCCGCCTCAGGCTACTACAAAAAGTTAGGCTTCAGCGAGCAGGGAGAGATATTTGATACGCCGCCAGTAGGACCTCACATCCTGATGTATAAAAGGCTCACA
modifications: Synthetic nucleic acid sequence; 0_5B8
Q: Which results are given for B1?
A: outcome two weeks after glyphosate spray ([4]; 0.5, 2 or 4× glyphosate (1× = 32 oz/acre of 40% ai), clonally propagated events, average of 5 leaves): survived the spraying procedure without signs of glyphosate damage; outcome after second spray with an 8× dose ([4]; 8× glyphosate three weeks later): survived

B2: R12G1: further evolved GAT enzyme, SEQ ID NO 917 (protein)
chain: MIEVKPINAEDTYDLRHRVLRPNQPIEACMFESDLTRGAFHLGGFYGGKLISVASFHQAEHTELQGKKQYQLRGVATLEGYREQKAGSSLVKHAEEILRKRGADMIWCNARTSASGYYRKLGFSEQGEVFDTPPVGPHILMYKRIT
modifications: R12G1
Q: With B2 as the molecule, how does the “GAT activity compared with the template polypeptides” value [5] read?
A: The value was “extremely high GAT activities comparable to those of the template polypeptides”.

B3: R12G2: further evolved GAT enzyme, SEQ ID NO:919 (protein)
chain: B2 chain with G38S
modifications: R12G2
Q: Which “GAT activity compared with the template polypeptides” value [5] does the source give for B3 here?
A: Its value is “extremely high GAT activities comparable to those of the template polypeptides”.

B4: R12G3: further evolved GAT enzyme, SEQ ID NO:921 (protein)
chain: B2 chain with E32D, S33N, T62S
modifications: R12G3
Q: Which “GAT activity compared with the template polypeptides” value [5] does the source give for B4 here?
A: Its value is “extremely high GAT activities comparable to those of the template polypeptides”.

B5: R12G4: further evolved GAT enzyme, SEQ ID NO:923 (protein)
chain: B2 chain with D14E, E32D, G38S, T62S
modifications: R12G4
Q: For B5, which “GAT activity compared with the template polypeptides” value [5] is on record?
A: The value was “extremely high GAT activities comparable to those of the template polypeptides”.

B6: R12G5: further evolved GAT enzyme, SEQ ID NO:925 (protein)
chain: B2 chain with D14E, E32D, T62S
modifications: R12G5
Q: Which “GAT activity compared with the template polypeptides” value [5] does the source give for B6 here?
A: Its value is “extremely high GAT activities comparable to those of the template polypeptides”.

B7: R12G6: further evolved GAT enzyme, SEQ ID NO:927 (protein)
chain: B2 chain with E32D, S33N, G38S, T62S
modifications: R12G6
Q: For B7, which “GAT activity compared with the template polypeptides” value [5] is on record?
A: The value was “extremely high GAT activities comparable to those of the template polypeptides”.

B8: R12G7: further evolved GAT enzyme, SEQ ID NO:929 (protein)
chain: B2 chain with E32D, S33N, T36M, Y46H, K67Q, I106L
modifications: R12G7
Q: With B8 as the molecule, how does the “GAT activity compared with the template polypeptides” value [5] read?
A: The value was “extremely high GAT activities comparable to those of the template polypeptides”.

B9: R12G8: further evolved GAT enzyme, SEQ ID NO:931 (protein)
chain: B2 chain with E32D, S33N, T36M, G38S, Y46H, K67Q, I106L
modifications: R12G8
Q: Which “GAT activity compared with the template polypeptides” value [5] does the source give for B9 here?
A: The value was “extremely high GAT activities comparable to those of the template polypeptides”.

B10: 22-13B12: GAT polypeptide, SEQ ID NO: 781 (protein)
chain: B2 chain with T36M, T62S, K67Q, V75M, M105I, I106L
modifications: D_S00397672_22-13B12
Q: Which “Half-life” value [6] does the source give for B10 here?
A: The value was 67 h.

B11: 22-15B4: GAT enzyme SEQ ID NO:789; Table 9 prints SEQ ID NO: 946 (protein)
chain: B2 chain with E32D, T36M, G38S, K67Q, A103V, M105L, I106L, R119K
modifications: D_S00397832_GAT22-15B4
Q: Which “Half-life” value [6] does the source give for B11 here?
A: Its value is 26 h.

B12: 22-18C5: GAT polypeptide, SEQ ID NO: 795 (protein)
chain: B2 chain with T62S, K67Q, S88T, A103V, M105L, I106L
modifications: D_S00398097_GAT22-18C5
Q: For B12, which “Half-life” value [6] is on record?
A: Its value is 43 h.

B13: 20-8H12: evolved GAT; polypeptide SEQ ID NO:739, gene SEQ ID NO:738 (protein)
chain: B2 chain with D14E, M30I, T36M, K49R, T62S, K67Q, V75M, M105L, I106L, R119K
modifications: D_S00341806_GAT20-8H12
Q: With B13 as the molecule, how does the “Half-life” value [6] read?
A: Its value is 54 h.
